Assay results taken from patent US20170130210.

Legend:
[1] = biological target: Pfk-I (DAS+4), N-terminal 6x-His-tagged Pfk-I with the modified DAS+4 tag at the C terminus (UniProt P0A796)
[2] = biological target: Pfk-I (LAA), N-terminal 6x-His-tagged Pfk-I with the native ssrA tag (LAA) appended to the C terminus (UniProt P0A796)
[3] = biological target: Pfk-I (untagged), N-terminal 6x-His-tagged phosphofructokinase-I without C-terminal degradation tag (UniProt P0A796)
Sequence of Pfk-I (untagged), N-terminal 6x-His-tagged phosphofructokinase-I without C-terminal degradation tag (P0A796 whole entry): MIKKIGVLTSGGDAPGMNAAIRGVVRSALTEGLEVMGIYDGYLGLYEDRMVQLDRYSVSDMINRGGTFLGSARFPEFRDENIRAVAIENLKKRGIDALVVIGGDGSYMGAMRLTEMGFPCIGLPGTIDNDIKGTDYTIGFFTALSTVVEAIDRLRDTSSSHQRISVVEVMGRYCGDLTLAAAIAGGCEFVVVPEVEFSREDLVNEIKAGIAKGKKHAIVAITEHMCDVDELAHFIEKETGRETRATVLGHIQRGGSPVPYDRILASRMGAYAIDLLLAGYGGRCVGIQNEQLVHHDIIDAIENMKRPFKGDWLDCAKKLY

Sequence of Pfk-I (LAA), N-terminal 6x-His-tagged Pfk-I with the native ssrA tag (LAA) appended to the C terminus (P0A796 other isoform, or with tags, fused parts or gaps): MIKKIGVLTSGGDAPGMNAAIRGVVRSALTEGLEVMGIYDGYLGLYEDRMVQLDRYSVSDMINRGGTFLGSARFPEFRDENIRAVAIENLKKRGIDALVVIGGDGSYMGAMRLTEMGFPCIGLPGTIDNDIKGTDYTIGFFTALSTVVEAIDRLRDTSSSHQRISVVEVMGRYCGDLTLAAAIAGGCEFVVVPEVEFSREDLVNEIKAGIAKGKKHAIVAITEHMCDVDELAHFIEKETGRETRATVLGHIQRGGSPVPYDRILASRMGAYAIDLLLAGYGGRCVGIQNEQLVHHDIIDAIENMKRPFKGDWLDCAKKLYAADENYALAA
Sequence of Pfk-I (DAS+4), N-terminal 6x-His-tagged Pfk-I with the modified DAS+4 tag at the C terminus (P0A796 other isoform, or with tags, fused parts or gaps): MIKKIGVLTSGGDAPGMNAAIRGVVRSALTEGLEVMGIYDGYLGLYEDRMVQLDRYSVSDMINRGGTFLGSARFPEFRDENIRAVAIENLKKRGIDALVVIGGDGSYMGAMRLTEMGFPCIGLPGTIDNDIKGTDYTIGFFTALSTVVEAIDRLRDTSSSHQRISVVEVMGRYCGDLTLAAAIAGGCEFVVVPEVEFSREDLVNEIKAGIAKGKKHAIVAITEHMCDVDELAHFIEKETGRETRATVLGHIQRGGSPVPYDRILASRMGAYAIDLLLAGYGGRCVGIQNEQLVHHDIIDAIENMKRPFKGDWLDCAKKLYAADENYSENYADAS

## ClpXP protease (0.3 µM ClpX6 and 0.9 µM ClpP14)
[1]
  in vitro degradation by ClpXP with ATP, SDS-PAGE time course, no SspB: no significant degradation was observed over the 60 minute period
[2]
  in vitro degradation by ClpXP with ATP, SDS-PAGE time course: shows almost complete disappearance by 20 minutes
[3]
  in vitro degradation by ClpXP with ATP, SDS-PAGE time course: does not show significant degradation during the 60 minute incubation with ClpXP
